Results taken from PMC6860931, “Role of the malic enzyme in metabolism of the halotolerant methanotroph Methylotuvimicrobium alcaliphilum 20Z” (PLoS ONE, 2019).

Legend:
purified protein [1] = substrate: O=C(O)C[C@H](O)C(=O)O; test: purified protein; conditions: NAD+ as co-substrate, assay mixture 0.3 mM NAD+, 2.5 mM MgCl2, 50 mM Tris-HCl, pH 9.0, 30°C
purified protein [2] = substrate: NC(=O)c1ccc[n+]([C@@H]2O[C@H](COP(=O)(O)OP(=O)(O)OC[C@H]3O[C@@H](n4cnc5c(N)ncnc54)[C@H](O)[C@@H]3O)[C@@H](O)[C@H]2O)c1; test: purified protein; format: biochemical, Methylotuvimicrobium alcaliphilum; conditions: malate as co-substrate, assay mixture 10 mM malate, 2.5 mM MgCl2, 50 mM Tris-HCl, pH 9.0, 30°C, varied: cofactor

B1: Mae (malic enzyme from Mtm. alcaliphilum 20Z) (Methylotuvimicrobium alcaliphilum 20Z) (protein)
chain: MTAMSKTPLYIPYAGPALLEMPLLNKGCAFSKEERQTFNLTGLLPPRYETIEEQVQRAYLQYSSFRNAINKHIYLRSIQDNNETLFYRLLQDHLPEMLPIIYTPTVGDACEQFSDIYRSSRGLFISYVDRQQIDDILRNTTKRNVKIIVVTDGERVLGLGDQGIGGMGISIGKLSLYTACGGISPAYTLPVVLDVGTNNEKLLQDPMYMGERHRRIPQAEYDAFIDFFLQAVKRRWPDVIVQFEDFAQPNAMPILQRYRDQLCCFNDDIQGTAAVTVGTLLAACRVKNRKLSEQRVVFVGAGSAGCGIAEQVIAQMRTEGLSDREARHRVYMVDRFGLLTESMTGLRDFQQKLVQVSNRLEDWSIESDYPSLLEVIQYAKPTVLIGVSGQHGIFTETVIRTMTQGCDWPIIFPLSNPPRQVEATPEQIIEWTEGRVLLAAGSPFPPVEYGGKRYDVTQCNNSYIFPGIGLGVIAVQARRISDEMLIAASETLAAASPLANTGQGELLPPLTELPELSKRIAFAVGKVALKQNLALEISDEQLLKSIEENFWQPVYRHYKRVCF
notes: full-length, 1689 bp gene, pET22b(+) NdeI/XhoI, His6-tagged, E. coli BL21 (DE3), Ni-NTA
Work on B1 yielded a Km (purified protein [1]) of 5500 ± 800 µM and a Km (purified protein [2]) of 57 ± 5 µM.
